Source: patent CN117264062A (SHANGHAI HRAIN BIOTECHNOLOGY CO LTD, dated 2023)

T1: 重组人Trop2-avi-his抗原蛋白 (recombinant human Trop2 extracellular domain with C-terminal avi-tag and 6×his-tag) (human, UniProt P09758 27-274)
T1 construct: The protein was coated unbiotinylated on the ELISA plate; A form biotinylated at the avi-tag was used for panning and for CAR staining; also called 重组人Trop2蛋白; Trop2蛋白
T1 sequence: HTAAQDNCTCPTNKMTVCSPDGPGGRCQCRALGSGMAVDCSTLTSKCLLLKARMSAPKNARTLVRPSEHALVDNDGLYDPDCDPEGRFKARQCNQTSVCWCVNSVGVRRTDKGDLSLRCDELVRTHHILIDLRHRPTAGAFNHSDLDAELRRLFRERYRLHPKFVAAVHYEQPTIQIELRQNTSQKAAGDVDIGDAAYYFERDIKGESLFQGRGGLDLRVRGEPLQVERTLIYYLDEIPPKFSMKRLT

B1: L2C8 anti-human Trop2 scFv (scFv, V domains shown)
VH: EVQLVESGGALVQRGGSLRLSCSASGFSVRNNYITWVRQAPGKGLEWVAIVFPGGSSYHADSVKGRFTISRDLSKNSVYLEMNSLREDDTGVYFCARDSGSPLWRGHFQYWGQGTTVTVSS
VL: QSVLTQPPSVSGAPGQRVTISCTGSSANIGAGYDVHWYQQLPGTAPKLLIYDNNKRPSGIPDRFSGSNSGTSATLGITGLQTGDEADYYCGTWDTSLSAWVFGGGTRLTVL
notes: Tested as an scFv in a periplasmic extract of TG1 (pComb3sc phagemid) and detected with anti-HA HRP
B2: L2C9 anti-human Trop2 scFv (scFv, V domains shown)
VH: EVQLLESGGGVVQPGMSLRVSCAASGFTFSNYGMHWVRQAPGKGLEWVGIIWSDGTYTYYGDSVQGRFTISRDNSENTLHLQMNSLRAEDTAVYYCAKSLTPLGGSFRIGDWGQGTLVTVSS
VL: QSVLTQPPSVSGAPGQRVTISCTGSSSNIGAGYDVHWYQQLPGTAPKLLIYDNTNRPSGVPDRFSGSKSGTSASLAITGLQADDEGDYYCQSYDSRLNALVFGGGTKLTVL
notes: as for B1
B3: L3G5 anti-human Trop2 scFv (scFv, V domains shown)
VH: QLQLQESGPGLLKPSETLSLICTVSGGSISSHYWSWIRQTPGKGLEWIGWIHSSGITNYNPSLMGRVTMSVDTSKNQFPLKVNSVTAADTAVYYCARGLRLTDDAFDIWGQGTMVTVSS
VL: QSALTQPASVSGSPGQSITISCTGTSSDVGGYNYVSWYQQHPGKAPKLMIHDVSNRPSGVSNRFFGSKSGNTASLTISGLQAEDEADYYCSSYTSSNTLAFGGGTKLTVL
notes: as for B1
B4: K2F5 anti-human Trop2 scFv (scFv, V domains shown)
VH: QVQLVQSGAEVKKPGESLTISCKSSGDNFSTNWIGWVRQMPGKGLEWMGIIYPGDSDSRYSPSFEGQVTISADKSISTAYLQWSSLKASDTAMYYCARYQGSTTPFDYWGQGTTVTVSS
VL: not shown
notes: as for B1

Target: T1, 重组人Trop2-avi-his抗原蛋白 (recombinant human …)
Assay: ELISA: recombinant human Trop2 coated at 100 ng/well, scFv periplasmic extract, anti-HA HRP detection, OD450

Binder	binding result
B1	binds
B2	binds
B3	binds
B4	binds
